Positions count from the first letter of the chain named.
B1: 1h-30 (other)
VH: EVQLLESGGGLVQPGGSLRLSCAASGFTFAHYHMGWVRQAPGKGLEWVSWIPADGLRTYYADSVKGRFTISRDNSKNTLYLQMNSLRAEDTAVYYCAKYEGAFDYWGQGTLVTVSS
B2: 1h-31 (other)
VL: DIQMTQSPSSLSASVGDRVTITCRASQSIGYSLAWYQQKPGKAPKLLIYWVSSLQSGVPSRFSGSGSGTDFTLTISSLQPEDFATYYCQQTQRTPFTFGQGTKVEIKR
B3: 1h-32 (other)
VL: B2 VL with S28N, Y31H, S32G, S53L, Q92L, R93S, T94K
B4: 1h-29 (other)
VH: EVQLLESGGGLVQPGGSLRLSCAASGFTFEDYDMNWVRQAPGKGLEWVSHIDRGGTLTYYADSVKGRFTISRDNSKNTLYLQMNSLRAEDTAVYYCAKSTLMGFDYWGQGTLVTVSS
B5: 1h-18-1 (other)
VL: DIQMTQSPSSLSASVGDRVTITCRASQYIGTSLNWYQQKPGKAPKLLTYQASFLQSGVPSRFSGSGSGTDFTLTISSLQPEDFATYYCQQLALRPMTFGQGTKVEIKR
B6: 1h-18-6 (other)
VL: B5 VL with T48I, F53L, S67Y
B7: 1h-35 (other)
VL: B5 VL with T31S, S32A, N34S, T48I, Q50R, F53N, L93I, M96F
B8: 1h-34 (other)
VL: B5 VL with N34A, T48I, Q50H, A51S, F53G, S60L, L91T, M96F
B9: 1h-18-3 (other)
VL: B5 VL with Q50R, F53L
B10: 1h-18-5 (other)
VL: B5 VL with F53L, L93M, R108W
B11: 1h-99-2112 (other)
VH: EVQLLESGGGLVQPGGSLRLSCAASGFTFKDKNMSWARQAPGKGLEWVSWIEAPGVQTFYADSVRGRFTISRDNSKNTLYLQMNSLRAEDTAVYYCARSPFGPLYGFDYRGQGTLVTVSS
B12: 1h-99-2114 (other)
VH: B11 VH with P54I, R65K, R98K
B13: 1h-99-2115 (other)
VH: B11 VH with A37V
B14: 1h-99-2113 (other)
VH: B11 VH with P54S, R65K, R98K
B15: 1h-37 (other)
VH: EVQLLESGGGLVQPGGSLRLSCAASGFTFGTYKMVWVRQAPGKGLEWVSSIGPGGLDTYYADSVKGRFTISRDNSKNTLYLQMNSLRAEDTAVYYCAKSWMTLPITGFDYRGQGTLVTVSS
B16: 1h-93 (other)
VH: EVQLLESGGGLVQPGGSLRLSCAASGFTFPLYEMAWVRQAPGKGLEWVSSIMSNGIRTYYADSVKGRFTISRDNSKNTLYLQMNSLRAEDTAVYYCAKRKSSSSRTVFDYWGQGTLVTVSS
B17: 1h-93-204 (other)
VH: B16 VH with P30Y, L31T, Y32A, K98R, K100E
B18: 1h-93-2 (other)
VH: B16 VH with K100E
B19: 1h-93-201 (other)
VH: B16 VH with P30S, L31V, Y32S, K98R, K100E
B20: 1h-93-1 (other)
VH: B16 VH with I56T, K100E
B21: 1h-99 (other)
VH: EVQLLESGGGLVQPGGSLRLSCAASGFTFDSANMTWVRQAPGKGLEWVSWIDDTGTQTYYADSVKGRFTISRDNSKNTLYLQMNSLRAEDTAVYYCAKSPFGPLYGFDYWGQGTLVTVSS
B22: 1h-99-218 (other)
VH: B21 VH with S31K, A32S, T35S, V37A, D52E, Y59F, W110R
B23: 1h-99-226 (other)
VH: B21 VH with D30K, T35S, D52E, Y59F, W110R
B24: 1h-99-236 (other)
VH: B21 VH with T35S, D52E, D53A, T54P, T56K, Y59F, W110R, Q112R
B25: 1h-99-229 (other)
VH: B21 VH with D30A, S31R, A32T, T35S, V37A, D52E, Y59F, W110R
B26: 1h-99-2116 (other)
VH: B11 VH with A37V, P54S, R65K, R98K
B27: 1h-99-228 (other)
VH: B21 VH with D30H, S31R, T35S, D52E, Y59F, F107S, W110R
B28: 1h-99-201 (other)
VH: B21 VH with D30H, S31R, A32W, T35S, V37A, D52E, Y59F, W110R
B29: 1h-99-222 (other)
VH: B21 VH with D30Q, S31R, A32S, T35S, D52E, Y59F, W110R
B30: 1h-99-221 (other)
VH: B21 VH with D30A, S31R, A32S, T35S, D52E, Y59F, W110R
B31: 1h-99-230 (other)
VH: B21 VH with T35S, D52E, D53S, T54I, T56V, Y59F, W110R
B32: 1h-99-227 (other)
VH: B21 VH with D30N, S31H, T35S, D52E, Y59F, S75Y, W110R
B33: 1h-99-220 (other)
VH: B21 VH with D30Y, S31R, A32S, T35S, D52E, Y59F, W110R
B34: 1h-99-217 (other)
VH: B21 VH with D30S, S31R, A32S, T35S, V37G, D52E, Y59F, W110R
B35: 1h-99-224 (other)
VH: B21 VH with D30S, S31H, A32N, T35S, D52E, Y59F, W110R
B36: 1h-99-225 (other)
VH: B21 VH with D30R, S31L, A32Q, T35S, D52E, Y59F, W110R
B37: 1h-99-203 (other)
VH: B21 VH with D30Y, S31K, T35S, V37A, D52E, Y59F, W110R
B38: 1h-99-1 (other)
VH: B21 VH with D52E, Y59F, K65R, S75F, W110R
B39: 1h-33 (other)
VL: DIQMTQSPSSLSASVGDRVTITCRASSNIHNRLNWYQQKPGKAPKLLIYAASSLQSGVPSRFSGSGSGTDFTLTISSLQPEDFATYYCRQWIQPPWTFGQGTKVEIKR
B40: 1h-239-9 (other)
VL: DIQMTQSPSSLSASVGDRVTITCRASQSIYPFLEWYQQKPGKAPKLLIYFTSRLQSGVPSRFSGSGSGTDFTLTISSLQPEDFATYYCLQNVTNPATFGQGTKVEIKR

The binders below were run against human CD28 (human, UniProt P10747 19-220) (assay: cell-based or functional assay).

| Binder | Luciferase assay (EC50) | MLR assay (EC50) |
| --- | --- | --- |
| B1 | 1200 nM | – |
| B2 | 800 nM | – |
| B3 | 4500 nM | – |
| B4 | > 7000 nM | – |
| B5 | 5400 nM | – |
| B6 | 1400 nM | – |
| B7 | 1900 nM | 2000 nM |
| B8 | 2900 nM | – |
| B9 | 1000 nM | – |
| B10 | > 7000 nM | – |
| B11 | 3 nM | 2 nM |
| B12 | 4 nM | 2 nM |
| B13 | 3 nM | 12 nM |
| B14 | 5 nM | 3 nM |
| B15 | – | 1900 nM |
| B16 | 2800 nM | 3200 nM |
| B17 | 176 nM | 1200 nM |
| B18 | 383 nM | 830 nM |
| B19 | 182 nM | 18 nM |
| B20 | 493 nM | 545 nM |

| Binder | Luciferase assay (EC50) | MLR assay (EC50) |
| --- | --- | --- |
| B21 | – | 2200 nM |
| B22 | 10 nM | 12 nM |
| B23 | 10 nM | 23 nM |
| B24 | 21 nM | 14 nM |
| B25 | 15 nM | 24 nM |
| B26 | 5 nM | 4 nM |
| B27 | 12 nM | 46 nM |
| B28 | 14 nM | 18 nM |
| B29 | 16 nM | 28 nM |
| B30 | 12 nM | 17 nM |
| B31 | 9 nM | 14 nM |
| B32 | 18 nM | 33 nM |
| B33 | 10 nM | 12 nM |
| B34 | 12 nM | 15 nM |
| B35 | 15 nM | 28 nM |
| B36 | 14 nM | 28 nM |
| B37 | 8 nM | 10 nM |
| B38 | 15 nM | 19 nM |
| B39 | 1600 nM | – |
| B40 | 27 nM | – |

— patent US20130109846A1 (published 2013)
